For five molecules, EC50 and FACS fluorescence results are on record in patent publication US20230049752A1 (University of California, published 2023).

A value given as a limit tells only on which side of the number the result lay.

Assay [1] deals with T1, mouse Claudin-6 (CLDN6) (mouse, UniProt Q9Z262 1-219).
T1 construct: whole, on cells; GFP fusion on engineered HEK293T cells; also called Mouse CLDN6; murine CLDN6
T1 sequence (looked up): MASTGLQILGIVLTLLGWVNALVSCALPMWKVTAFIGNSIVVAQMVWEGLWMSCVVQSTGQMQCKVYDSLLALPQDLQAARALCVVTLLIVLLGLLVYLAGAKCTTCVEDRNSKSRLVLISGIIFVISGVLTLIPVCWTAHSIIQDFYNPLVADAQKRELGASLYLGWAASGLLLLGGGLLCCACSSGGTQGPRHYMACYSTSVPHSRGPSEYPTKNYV
The assay is described as follows: FACS titration of labelled mAb on HEK293T mouse CLDN6-mGFP cells. Here is the method: CLDN6 antibodies were tested from 0.32 nM to 1000 nM (serial dilution 1:5, 6 points) in a 50 μl volume with 150,000 cells system.
CLDN6-expressing cells were used in FACS assays to determine the CLDN6 antibody's ability to bind to CLDN6 on the surface of cells and to cross-react with other CLDN family members. HEK293 T cells engineered to express human CLDN6 fused to GFP, mouse CLDN6 fused to GFP, CLDN9-GFP, CLDN4-GFP, or CLDN3-GFP, or GFP alone (without CLDN6) were used as artificial models of CLDN6 expression.
For each type of cell tested and for each mAb, cells were detached from the surface of the culture flasks by EDTA (instead of trypsin) in order to protect the cell surface proteins. The detached cells were then incubated with Alexa Fluor®-labeled CLDN6 mAbs for 30 min in the dark on ice at a pre-determined concentration. […] After washing, the cells were read by a BD Accuri™ Flow Cytometer C6 to detect antibody-antigen protein binding in channel FL4H. Each antibody was tested at varied concentrations to establish a dose-fluorescence curve. […] Cross-reactivity data were obtained using a similar methodology, but with cells having a different expression profile for CLDN6, CLDN3, CLDN4 and CLDN9.

Assay [2] addresses CLDN3/4 (endogenous on LS513 or MCF7 cells). The assay is described as follows: FACS titration of labelled mAb on LS513 cells (endogenous CLDN3/4+).
Assay [3] has as its target human Claudin-6 (CLDN6) (human) (UniProt P56747). The assay can be described thus: FACS titration of labelled mAb on OVCA429 cells (endogenous CLDN6+).
Assay [4] has the same target. The assay can be described thus: FACS titration of labelled mAb on ARK2 cells (endogenous CLDN6+).
Assay [5] shares this target. The assay is described as follows: FACS titration of labelled mAb on HEK293T-CLDN6-mGFP cells.
The target of assay [6] is CLDN3/4 (endogenous on LS513 or MCF7 cells). The assay can be described thus: FACS titration of labelled mAb on MCF7 cells (endogenous CLDN3/4+).
Assay [7] deals with human Claudin-6 (CLDN6) (human) (UniProt P56747). The assay can be described thus: FACS, 1.5 ug Ab, ARK2 cells (2nd Ab only 1351.21). On the technique in general: Flow cytometry measures light scatter and fluorescence of single cells or particles in a stream.
Assay [8] addresses T1, mouse Claudin-6 (CLDN6). The assay can be described thus: FACS, 293T clone expressing mouse CLDN6, dose not stated (2nd Ab only 1061.72). As to the method:
Two doses (1.5 μg or 0.3 μg) of the humanized antibodies were tested for binding to either human CLDN6 or murine CLDN6 which proteins were expressed by engineered 293T clones.

The target of assay [9] is human Claudin-6 (CLDN6) (human) (UniProt P56747). The assay is described as follows: FACS, 0.3 ug Ab, 293T clone expressing human CLDN6 (2nd Ab only 768.07).
Assay [10] has the same target. The assay is described as follows: FACS, 1.5 ug Ab, 293T clone expressing human CLDN6 (2nd Ab only 768.07).
For assay [11] the target is unchanged. The assay is described as follows: FACS, 0.3 ug Ab, ARK2 cells (2nd Ab only 1351.21).
For assay [12] the target is unchanged. The assay can be described thus: FACS, 1.5 ug Ab, OVCA429 cells (2nd Ab only 885.77).

B1: AB2 (antibody, V domains shown)
VH: EVKLEESGGGLVQPGGSMKLSCVASGFTFSDYWMNWVRQSPEKGLEWVAQIRLKSDNYATHYAESVKGRFTISRDDSKRSVYLQMNNLRAEDTGTYYCNDGPPSGCWGQGTTLIVSS
VL: DIQMTQSPASLSASVGETVTITCRISENIYSYLAWYQQKQGKSPQLLVYNAKILVEGVPSRFSGSGSGTQFSLKINSLQPEDFGNYYCQHHYTVPWTFGGGTKLEIK
notes: full-length IgG (ExpiCHO)
Consider B1, for which the concentration giving a half-maximal response (EC50) (as a rule, the concentration needed to bring the measured effect to its halfway point) in the assay with mouse Claudin-6 (CLDN6) [1] was at least 5 µM; in assay [2] it was 5 µM; in assay [3], 0.912 µM; in assay [4], 1.36 µM; in assay [5], 0.182 µM; in [6], 5 µM.

B2: AB3 (antibody, V domains shown)
VH: EVKLEESGGGLVQPGGSMKLSCVASGFTFSNYWMNWVRQSPEKGLEWVAQIRLKSDNYATHYAESVKGRFTISRDDSKRSVYLQMNNLRAEDTGTYYCNDGPPSGCWGQGTTLIVSS
VL: DIQMTQSPASLSASVGETVTITCRISENIYSYLAWYQQKQGKSPQLLVYNAKILVEGVPSRFSGSGSGTQFSLKINSLQPEDFGNYYCQHHYTVPWTFGGGTKLEIK
notes: full-length IgG (ExpiCHO)
For B2, the EC50 was 2.49 µM with mouse Claudin-6 (CLDN6) [1]; 5 µM in [2]; 1.1 µM in assay [3]; 1.65 µM in [4]; 0.604 µM in assay [5]; 5 µM in assay [6].

B3: AB18 (antibody, V domains shown)
VH: QVQLKQSGPELEKPGASVKISCKASGYSFTGYNMNWVKQSNGKSLEWIGNIDPYYGGSTYNQKFTGKATLTVDKSSSTAYMQLKSLTSEDSAVYYCARERSGYVFSAMDYWGQGTSVTVSS
VL: NIMMTQSPSSLAVSAGEKVTMSCKSSQSVLFSSNQKNYLAWYQQKPGQSPRLLIYWASTRESGVPDRFTGSGSGTDFTLTISNVQAEDLAVYYCHQYLSSRTFGAGTKLELK
In the case of B3, the EC50 was 5 µM in [2]; 2.44 µM in assay [3]; 1.35 µM in assay [4]; 5 µM in [5]; 5 µM in assay [6].

B4: AB19 (antibody, V domains shown)
VH: EVQLQQSGPELVKPGGSMKISCKASGYSFTGYTMNWVKRSHGKNLEWIGLINPYNGVTTYNQNFKGKATLAVDKSSSTAYMELLGLTSEDSAVYYCTRDPLYYGYRDSTMDYWGQGTSVTVSS
VL: NIMMTQSPSSLAVSAGEKVTMSCKSSQSVLFSSNQKNYLAWYQQKPGQSPRLLIYWASTRESGVPDRFTGSGSGTDFTLTISNVQAEDLAVYYCHQYLSSRTFGAGTKLELK
Regarding B4, the EC50 in assay [2], in assay [3], in [4], in assay [5] and in assay [6] was 5 µM in each case.

B5: AB1-6 (antibody, V domains shown)
VH: QVQLVQSGAEVKKPGASVKMSCKASGYTFTTYTMHWVRQAPGQGLEWIGFINPSSGYTDYAQKFQGRVTLTADTSTSTVYMELSSLRSEDTAVYYCANGDYYVAYWGQGTLVTVSS
VL: DIQMTQSPSSLSASVGDRVTITCTASSSVSSTYFHWYQQKPGKAPKLLIYSTSNLASGVPSRFSGSGSGTDYTLTISSLQPEDFATYYCHQYHRSPLTFGQGTKLEIK
notes: humanized
On to B5, for which the FACS fluorescence amounted to 7740 in assay [7]; 77600 with mouse Claudin-6 (CLDN6) [8]; 120000 in assay [9]; 227000 in assay [10]; 2820 in assay [11]; 29900 in [12]. For the same molecule, the EC50 in [2], in assay [3], in assay [4], in assay [5] and in assay [6] was 5 µM throughout.
